Legend:
[1] = target: 5P_FL2 spike (six-proline FL2 spike with P986 reverted to K986) (SARS-CoV-2) (UniProt P0DTC2); assay: SEC
[2] = target: 5P_FL2 spike (six-proline FL2 spike with P986 reverted to K986) (SARS-CoV-2) (UniProt P0DTC2); assay: negative-stain electron microscopy
[3] = target: VFLIP_D614G spike (VFLIP variant bearing the D614G mutation) (SARS-CoV-2) (UniProt P0DTC2); assay: cryo-EM structure
[4] = target: 6P_DS3 spike (six-proline spike with the inter-protomer disulfide Y707C/T883C) (SARS-CoV-2) (UniProt P0DTC2); assay: SEC
[5] = target: 6P_DS3 spike (six-proline spike with the inter-protomer disulfide Y707C/T883C) (SARS-CoV-2) (UniProt P0DTC2); assay: negative-stain electron microscopy
[6] = target: 6P_DS3 spike (six-proline spike with the inter-protomer disulfide Y707C/T883C) (SARS-CoV-2) (UniProt P0DTC2); assay: non-reducing SDS-PAGE

5P_FL2 spike (six-proline FL2 spike with P986 reverted to K986) (from UniProt P0DTC2) (domain or fragment)
stoichiometry N [1]: 3
stoichiometry N [2]: 3

VFLIP_D614G spike (VFLIP variant bearing the D614G mutation) (from UniProt P0DTC2) (domain or fragment)
stoichiometry N [3]: 3

6P_DS3 spike (six-proline spike with the inter-protomer disulfide Y707C/T883C) (from UniProt P0DTC2 13-1208) (domain or fragment)
stoichiometry N [4]: 3
stoichiometry N [5]: 3
stoichiometry N [6]: 3

From publication doi:10.1101/2021.05.06.441046
